The results in this text go back to paper PMC6689050, “A switch element in the autophagy E2 Atg3 mediates allosteric regulation across the lipidation cascade” (Nature Communications, 2019).

Test [1] addresses T1, Atg3^∆FR (yeast Atg3 lacking the flexible region) (S. cerevisiae, UniProt P40344 1-310, ∆FR (FR, residues 85–159)).
T1 sequence: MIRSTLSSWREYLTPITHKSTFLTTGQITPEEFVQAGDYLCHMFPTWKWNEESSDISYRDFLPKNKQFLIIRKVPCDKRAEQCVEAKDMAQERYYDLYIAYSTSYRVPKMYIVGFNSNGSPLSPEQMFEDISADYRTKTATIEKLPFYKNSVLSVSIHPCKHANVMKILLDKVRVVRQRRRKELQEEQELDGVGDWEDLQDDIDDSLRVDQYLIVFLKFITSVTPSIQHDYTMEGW
Nature of the test: NMR.

Test [2] has as its target T1, Atg3^∆FR (yeast Atg3 lacking the …). As to the kind of experiment: NMR; average over E123IR residues.
The target in test [3] is T2, Atg12–Atg5 conjugate (His-Atg12 100–186 conjugated to Atg5 1–284), minimal yeast autophagy E3 (S. cerevisiae, UniProt P38316 100-186; Q12380 1-284, conjugated to Atg5 (Atg12–Atg5 conjugate) | conjugated to Atg12 (Atg12–Atg5 conjugate)).
T2 construct: Atg12, S. cerevisiae, residues 100–186; Atg5, S. cerevisiae, residues 1–284, untagged; Covalent conjugate formed in E. coli by co-expressed Atg7 and Atg10; No removal of the His tag is told; also called His-Atg12–Atg5; minimal yeast E3; source: E. coli BL21, co-expressed with Atg7 1–630 and Atg10; purified (Ni-NTA, cation exchange); not shown: His6, N-terminal, kept
T2 sequence (looked up) 1: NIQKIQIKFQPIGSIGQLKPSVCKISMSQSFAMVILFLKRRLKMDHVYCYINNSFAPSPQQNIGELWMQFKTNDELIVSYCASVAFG
T2 sequence (looked up) 2: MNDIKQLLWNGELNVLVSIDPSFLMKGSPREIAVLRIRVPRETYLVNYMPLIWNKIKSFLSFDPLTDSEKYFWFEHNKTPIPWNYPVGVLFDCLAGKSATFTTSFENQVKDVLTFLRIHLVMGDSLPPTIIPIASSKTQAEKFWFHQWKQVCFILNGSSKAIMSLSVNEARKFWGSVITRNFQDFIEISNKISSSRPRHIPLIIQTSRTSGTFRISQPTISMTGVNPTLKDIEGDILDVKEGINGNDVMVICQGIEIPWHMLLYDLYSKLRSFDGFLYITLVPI
As to the kind of experiment: NMR titration; 0.1 mM 15N-labeled Atg3^FR 86–159 titrated with 0–150 µM unlabeled Atg12–Atg5; [15N,1H] TROSY; 25 °C, 20 mM MES pH 6.5, 100 mM NaCl, 10% D2O. The conditions noted are these: both partners purified.

Test [4] addresses T3, Atg3^FR (residues 86–159), the intrinsically disordered flexible region of yeast Atg3 (S. cerevisiae, UniProt P40344 86-159).
T3 chain: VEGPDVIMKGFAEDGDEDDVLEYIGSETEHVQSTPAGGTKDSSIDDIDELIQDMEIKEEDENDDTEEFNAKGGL
As to the kind of experiment: NMR; average over E123IR residues; Atg12–Atg5 with Atg16.

The target in test [5] is T2, Atg12–Atg5 conjugate (His-Atg12 100–186 …). As to the kind of experiment: SEC; purified His-Atg12–Atg5 combined with Atg16 1–46 in a 1:2 molar ratio, Superdex-200; peak fractions of the complex harvested. The conditions noted are these: both partners purified.

B1: Atg3^FR 86–159 mutant I132D, L135D, I136D (printed elsewhere as I136R) (domain or fragment)
chain: VEGPDVIMKGFAEDGDEDDVLEYIGSETEHVQSTPAGGTKDSSIDDDDEDDQDMEIKEEDENDDTEEFNAKGGL
In test [1], B1 displayed an equilibrium dissociation constant (Kd) of 994 µM.

B2: Atg3^FR (residues 86–159), the intrinsically disordered flexible region of yeast Atg3 (domain or fragment, S. cerevisiae, UniProt P40344 86-159, looked up)
chain: VEGPDVIMKGFAEDGDEDDVLEYIGSETEHVQSTPAGGTKDSSIDDIDELIQDMEIKEEDENDDTEEFNAKGGL
notes: Atg3 (autophagy E2), S. cerevisiae, flexible region, residues 86–159; 15N-labelled (or 13C,15N-labelled) for NMR; The introduction gives the FR as residues 85–159, the construct is 86–159; also called Atg3^FR 86–159; holds the Atg3^E123IR element; source: purified
In turn, B2 had a Kd in test [2] of 238 µM. The binding result in test [3] was “binds”.

B3: Atg12–Atg5 conjugate (His-Atg12 100–186 conjugated to Atg5 1–284), minimal yeast autophagy E3 (complex)
chain 1: NIQKIQIKFQPIGSIGQLKPSVCKISMSQSFAMVILFLKRRLKMDHVYCYINNSFAPSPQQNIGELWMQFKTNDELIVSYCASVAFG
chain 2: MNDIKQLLWNGELNVLVSIDPSFLMKGSPREIAVLRIRVPRETYLVNYMPLIWNKIKSFLSFDPLTDSEKYFWFEHNKTPIPWNYPVGVLFDCLAGKSATFTTSFENQVKDVLTFLRIHLVMGDSLPPTIIPIASSKTQAEKFWFHQWKQVCFILNGSSKAIMSLSVNEARKFWGSVITRNFQDFIEISNKISSSRPRHIPLIIQTSRTSGTFRISQPTISMTGVNPTLKDIEGDILDVKEGINGNDVMVICQGIEIPWHMLLYDLYSKLRSFDGFLYITLVPI
modifications: conjugated to Atg5 (Atg12–Atg5 conjugate) | conjugated to Atg12 (Atg12–Atg5 conjugate)
In test [4], B3 showed a Kd of 69 µM.

B4: Atg16 (residues 1–46) (domain or fragment, S. cerevisiae, UniProt Q03818 1-46, looked up)
chain: MGNFIITERKKAKEERSNPQTDSMDDLLIRRLTDRNDKEAHLNELF
notes: Atg16, S. cerevisiae, residues 1–46; also called Atg16 1–46; source: purified
B4: in test [5], the binding result was “binds”.
